This note sets out measurements from US20220251152A1, “COMPOSITIONS AND METHODS FOR SELECTIVE PROTEIN DEGRADATION” (Novartis AG, priority 2019, published 2022).

For this experiment, the target named is T1, IKZF3 136-180 and 236-249-tagged avian myelocytomatosis viral oncogene (MYC) homolog (Homo sapiens, UniProt Q96SW2+Q9UKT9, DEL181-196/S197T).
T1 construct: expressed in transfected cells; host or cells: HEK293T
The experiment in a line: Western blot of IKZF3-tagged MYC in HEK293T cells. The format is cell-based. Conditions: tag fused to N-terminus of MYC; lenalidomide 4 hours.

T1 sequence (Q96SW2 whole entry, stated change not applied, one chain of several): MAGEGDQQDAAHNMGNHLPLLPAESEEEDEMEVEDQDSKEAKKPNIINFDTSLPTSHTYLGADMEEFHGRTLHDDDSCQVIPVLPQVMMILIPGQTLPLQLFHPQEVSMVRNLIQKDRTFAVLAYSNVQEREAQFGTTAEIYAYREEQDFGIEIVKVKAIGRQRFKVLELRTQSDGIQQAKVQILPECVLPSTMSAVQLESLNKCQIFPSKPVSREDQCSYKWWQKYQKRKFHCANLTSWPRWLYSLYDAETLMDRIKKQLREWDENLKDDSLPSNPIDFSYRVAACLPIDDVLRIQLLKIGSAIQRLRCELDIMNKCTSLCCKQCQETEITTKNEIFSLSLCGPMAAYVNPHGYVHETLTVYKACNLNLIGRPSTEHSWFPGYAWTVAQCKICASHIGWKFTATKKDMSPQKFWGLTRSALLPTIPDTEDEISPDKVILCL

In the case of “IKZF3 136-180 and 236-249: IKZF3-based degradation tag with amino acid residues 136-180 and 236-249 of human IKZF3, SEQ ID NO: 3 (HKRSHTGERPFQCNQCGASFTQKGNLLRHIKLHTGEKPFKCHLCNTASAEARHIKAEMG; source: /note="Description of Unknown: IKZF3 sequence")”, the “ability of the tag to mediate lenalidomide-dependent degradation of MYC” value is recorded as “mediated the lenalidomide-dependent degradation of tagged MYC”.
